The target of this assay is T1, recombinant 6His-Sp17 protein (UniProt Q15506 1-151).
T1 sequence: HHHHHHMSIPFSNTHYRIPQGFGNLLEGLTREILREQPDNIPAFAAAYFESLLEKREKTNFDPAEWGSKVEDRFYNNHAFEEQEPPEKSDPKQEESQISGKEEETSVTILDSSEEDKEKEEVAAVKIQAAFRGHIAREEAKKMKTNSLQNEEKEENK
The assay can be described thus: SPR (Biacore T200), 6His-Sp17 at 6.25-300 nM. An excerpt: The lines correspond, from highest to lowest, to fitted cycles for 300 nanomolar, 100 nanomolar, 50 nanomolar, 25 nanomolar, 12.5 nanomolar, and 6.25 nanomolar concentrations of 6His-Sp17.
The nucleotide sequences encoding the VH and VL regions of Example 1 were cloned into a mouse IgG2a heavy chain gene and a mouse kappa light chain gene, respectively, and expressed in CHO—S cells to produce a mouse-human chimeric antibody, which was named chAB2. Successful generation of the antibody was confirmed by SDS-PAGE and western blotting using anti-mouse heavy and light chain antibodies and recombinant Sp17 protein (FIGS. 2 & 3). The chAB2 antibody was reactive to mouse surface Sp17 protein expressed on the mouse ovarian cancer cell line ID8 (FIG. 4).
(In general: Surface plasmon resonance follows binding to a sensor surface in real time, without labels.)

Data on 1 molecule can be found in US20250011420A1 (MEDICOVESTOR, published 2025).

B1: mouse-human chimeric anti-Sp17 IgG2a/kappa monoclonal antibody chAB2 (antibody, V domains shown)
VH: QVQLQQSGAEVKKPGSSVKVSCKASGGTFSSYAISWVRQAPGQGLEWMGRIIPILGIANYAQKFQGRVTITADKSTSTAYMELSSLRSEDTAVYYCARPSEEVVAAYGAFDIWGQGTTVTVSS
VL: EIVLTQSPLSLPVRPGEPASISCRASQSLLRSDGFNYLDWYLQKPGQSPQLLVYLGSNRASGVPDRFSGSGSGTDFTLKISRVEAEDVGVYYCMQAVQTPYIFGQGTKLEIK
notes: also called chimeric antibody; anti-Sp17 antibody chAB2
As a reminder, the Kd is the concentration at which binding is half-saturated. What is called koff is the first-order rate constant of dissociation. As a reminder, the kon is the second-order rate constant of association. Consider B1, for which the dissociation constant (Kd) is 2.07 nM, the koff is 0.00013 s⁻¹ and the on-rate constant (kon) is 62600 M⁻¹ s⁻¹.
